# B1: PTN: Pleiotrophin, heparin binding growth factor; recombinant human PTN purchased from R&D systems (protein, UniProt P21246 33-168, looked up)
# Pleiotrophin: GKKEKPEKKVKKSDCGEWQWSVCVPTSGDCGLGTREGTRTGAECKQTMKTQRCKIPCNWKKQFGAECKYQFQAWGECDLNTALKTRTGSLKRALHNAECQKTVTISKPCGKLTKPKPQAESKKKKKEGKKQEKMLD
# Test system: β-catenin
# Test: β-catenin assays
# Type: cell-based, mouse
# Conditions: 34−KSL cells treated with PTN (data not shown)
# Excerpt: In order to determine a potential mechanism through which PTN mediates HSC expansion, an examination was made as to whether PTN altered pathways that are known to be affected by RPTPβ/ζ (Meng et al, Proc Natl Acad Sci USA 97: 2603-8 (2000), Stoica et al, J Biol Chem 276:16772-9 (2001), Landgraf et al, J Biol Chem 283:25036-45 (2008), Deuel et al, Arch Biochem Biophys 397:162-71 (2002)). Canonical PTN signaling occurs via binding and inactivation of RPTPβ/ζ (Meng et al, Proc Natl Acad Sci USA 97: 2603-8 (2000)), which can facilitate the tyrosine phosphorylation of several intracellular substrates, including Akt and β-catenin (Souttou et al, J Biol Chem 272:19588-93 (1997), Gu et al, FEBS Lett 581:382-8 (2007)). […] BM 34^− KSL cells were treated with TSF with and without 100 ng/mL PTN in the presence and absence of 10 μM wortmannin, a PI 3-kinase inhibitor (Souttou et al, J Biol Chem 272:19588-93 (1997)).
molecule,measurement,value
B1,activated form of β-catenin,no increase

# — US20150216933A1, “HEMATOPOIETIC STEM CELL GROWTH FACTOR” (DUKE UNIVERSITY, priority 2008, published 2015)
